In patent publication US20170314036A1 (AGRESEARCH, published 2017):

T1: Y2H NINJA-AD (Arabidopsis NINJA, At4g28910, full length, with N-terminal GAL4 activation domain); … (Arabidopsis)
T1 construct: Prey fusion in yeast; also called NINJA fused to AD
T1 chain: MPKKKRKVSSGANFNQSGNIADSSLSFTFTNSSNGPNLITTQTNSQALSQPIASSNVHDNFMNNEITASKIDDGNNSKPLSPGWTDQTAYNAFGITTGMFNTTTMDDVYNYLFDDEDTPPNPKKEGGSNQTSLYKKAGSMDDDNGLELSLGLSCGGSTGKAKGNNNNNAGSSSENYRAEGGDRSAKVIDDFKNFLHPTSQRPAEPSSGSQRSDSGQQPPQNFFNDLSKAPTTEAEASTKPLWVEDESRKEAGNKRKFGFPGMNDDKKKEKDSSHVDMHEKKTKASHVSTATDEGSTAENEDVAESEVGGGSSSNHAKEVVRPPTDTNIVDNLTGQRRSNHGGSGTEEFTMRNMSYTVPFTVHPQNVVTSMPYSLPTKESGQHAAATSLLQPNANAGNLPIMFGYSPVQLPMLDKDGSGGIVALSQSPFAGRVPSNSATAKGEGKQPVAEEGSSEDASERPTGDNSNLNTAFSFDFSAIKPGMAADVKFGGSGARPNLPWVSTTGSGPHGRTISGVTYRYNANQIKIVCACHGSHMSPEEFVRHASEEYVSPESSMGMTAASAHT

T2: Y2H BZR1-AD (Arabidopsis BZR1, At1g75080, full length, with N-terminal GAL4 activation domain; pDEST22-BZR1) (Arabidopsis)
T2 construct: Prey fusion in yeast; also called BZR1 fused to AD; Brassinazole Resistant 1
T2 chain: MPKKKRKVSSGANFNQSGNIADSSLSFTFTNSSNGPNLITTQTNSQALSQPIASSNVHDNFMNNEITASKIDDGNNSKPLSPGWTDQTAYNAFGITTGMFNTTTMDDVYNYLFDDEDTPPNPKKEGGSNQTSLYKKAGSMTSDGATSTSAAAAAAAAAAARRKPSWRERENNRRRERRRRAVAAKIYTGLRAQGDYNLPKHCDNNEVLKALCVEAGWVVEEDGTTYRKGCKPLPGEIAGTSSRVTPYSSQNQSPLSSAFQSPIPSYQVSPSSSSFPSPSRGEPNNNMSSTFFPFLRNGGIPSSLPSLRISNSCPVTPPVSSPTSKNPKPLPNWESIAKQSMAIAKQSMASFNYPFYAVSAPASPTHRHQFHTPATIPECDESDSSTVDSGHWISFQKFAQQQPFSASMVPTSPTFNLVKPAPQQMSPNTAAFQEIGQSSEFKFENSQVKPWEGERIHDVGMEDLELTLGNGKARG

T3: Y2H PPD1-AD (Arabidopsis PPD1 full length with N-terminal GAL4 activation domain; pDEST22-PPD1) (Arabidopsis)
T3 construct: Prey fusion in yeast; The legend says only 'PPD'; also called PPD1 fused to AD
T3 chain: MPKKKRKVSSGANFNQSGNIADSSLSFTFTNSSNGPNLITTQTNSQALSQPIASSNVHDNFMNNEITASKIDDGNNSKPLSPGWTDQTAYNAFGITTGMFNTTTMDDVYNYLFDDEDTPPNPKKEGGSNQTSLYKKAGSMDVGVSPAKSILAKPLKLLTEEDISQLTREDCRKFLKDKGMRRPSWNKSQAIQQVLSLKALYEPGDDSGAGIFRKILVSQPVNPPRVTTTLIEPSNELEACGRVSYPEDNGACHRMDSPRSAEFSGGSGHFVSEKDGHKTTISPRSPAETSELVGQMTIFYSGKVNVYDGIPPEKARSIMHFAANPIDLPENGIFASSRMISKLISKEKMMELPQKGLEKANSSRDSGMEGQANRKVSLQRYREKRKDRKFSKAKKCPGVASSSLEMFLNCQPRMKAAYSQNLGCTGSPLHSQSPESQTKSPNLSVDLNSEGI

T4: Y2H RGA1-AD (DELLA protein RGA1 with GAL4 activation domain)
T4 construct: Prey fusion in yeast, tested with PPD1-DBD as bait
T4 chain: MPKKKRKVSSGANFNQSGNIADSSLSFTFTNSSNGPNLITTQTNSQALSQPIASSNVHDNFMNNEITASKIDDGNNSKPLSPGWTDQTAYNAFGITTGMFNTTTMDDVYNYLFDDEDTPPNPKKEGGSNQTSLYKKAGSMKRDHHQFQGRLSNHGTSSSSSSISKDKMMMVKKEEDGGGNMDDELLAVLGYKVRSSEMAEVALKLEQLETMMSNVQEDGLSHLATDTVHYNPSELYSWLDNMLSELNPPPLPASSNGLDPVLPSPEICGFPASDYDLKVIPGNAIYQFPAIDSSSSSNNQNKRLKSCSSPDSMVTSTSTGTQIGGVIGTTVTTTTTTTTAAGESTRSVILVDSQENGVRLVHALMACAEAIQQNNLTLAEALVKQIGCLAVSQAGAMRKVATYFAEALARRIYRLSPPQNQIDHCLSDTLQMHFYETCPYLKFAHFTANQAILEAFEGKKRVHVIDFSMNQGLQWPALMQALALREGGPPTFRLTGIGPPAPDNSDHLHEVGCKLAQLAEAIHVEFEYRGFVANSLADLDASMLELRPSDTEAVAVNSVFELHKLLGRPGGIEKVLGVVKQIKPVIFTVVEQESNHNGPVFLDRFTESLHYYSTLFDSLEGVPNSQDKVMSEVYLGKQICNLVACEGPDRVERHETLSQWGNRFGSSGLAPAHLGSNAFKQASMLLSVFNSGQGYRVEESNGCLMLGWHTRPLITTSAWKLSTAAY

B1: Y2H TPL-DBD (Arabidopsis TOPLESS, At1g15750, full length, with N-terminal GAL4 DNA binding domain; pDEST32-TPL) (other)
chain: MKLLSSIEEACNICRLKKLKCSKEKPKCAKCLKNNWECRYSPKTKRSPLTRAHLTEVESRLERLEQLFLLIFPRENLNMILKMDSLQDIKALLTGLFVQDNVNKDAVTDRLASVETDMPLTLRQHRISATSSSEESSNKGQRQLTVSSRSNQTSLYKKAGSMSSLSRELVFLILQFLDEEKFKETVHKLEQESGFFFNMKYFEDEVHNGNWDEVEKYLSGFTKVDDNRYSMKIFFEIRKQKYLEALDKHDRPKAVDILVKDLKVFSTFNEELFKEITQLLTLENFRENEQLSKYGDTKSARAIMLVELKKLIEANPLFRDKLQFPTLRNSRLRTLINQSLNWQHQLCKNPRPNPDIKTLFVDHSCGPPNGARAPSPVNNPLLGGIPKAGGFPPLGAHGPFQPTASPVPTPLAGWMSSPSSVPHPAVSAGAIALGGPSIPAALKHPRTPPTNASLDYPSADSEHVSKRTRPMGISDEVNLGVNMLPMSFSGQAHGHSPAFKAPDDLPKTVARTLSQGSSPMSMDFHPIKQTLLLVGTNVGDIGLWEVGSRERLVQKTFKVWDLSKCSMPLQAALVKEPVVSVNRVIWSPDGSLFGVAYSRHIVQLYSYHGGEDMRQHLEIDAHVGGVNDISFSTPNKQLCVITCGDDKTIKVWDAATGVKRHTFEGHEAPVYSVCPHYKENIQFIFSTALDGKIKAWLYDNMGSRVDYDAPGRWCTTMAYSADGTRLFSCGTSKDGESFIVEWNESEGAVKRTYQGFHKRSLGVVQFDTTKNRYLAAGDDFSIKFWDMDAVQLLTAIDGDGGLQASPRIRFNKEGSLLAVSGNENVIKIMANSDGLRLLHTFENISSESSKPAINSIAAAAAAAATSAGHADRSANVVSIQGMNGDSRNMVDVKPVITEESNDKSKIWKLTEVSEPSQCRSLRLPENLRVAKISRLIFTNSGNAILALASNAIHLLWKWQRNERNATGKATASLPPQQWQPASGILMTNDVAETNPEEAVPCFALSKNDSYVMSASGGKISLFNMMTFKTMATFMPPPPAATFLAFHPQDNNIIAIGMDDSTIQIYNVRVDEVKSKLKGHSKRITGLAFSNVLNVLVSSGADAQLCVWNTDGWEKQRSKVLPLPQGRPNSAPSDTRVQFHQDQAHFLVVHETQLAIYETTKLECMKQWAVRESLAPITHATFSCDSQLVYASFMDATVCVFSSANLRLRCRVNPSAYLPASLSNSNVHPLVIAAHPQEPNMFAVGLSDGGVHIFEPLESEGKWGVAPPAENGSASGAPTAPSVGASASDQPQR
notes: Bait fusion in yeast; also called TPL fused to DBD
B2: Y2H PPD1-DBD (Arabidopsis PPD1, At4g14713, full length, with N-terminal GAL4 DNA binding domain; pDEST32-PPD1) (other)
chain: MKLLSSIEEACNICRLKKLKCSKEKPKCAKCLKNNWECRYSPKTKRSPLTRAHLTEVESRLERLEQLFLLIFPRENLNMILKMDSLQDIKALLTGLFVQDNVNKDAVTDRLASVETDMPLTLRQHRISATSSSEESSNKGQRQLTVSSRSNQTSLYKKAGSMDVGVSPAKSILAKPLKLLTEEDISQLTREDCRKFLKDKGMRRPSWNKSQAIQQVLSLKALYEPGDDSGAGIFRKILVSQPVNPPRVTTTLIEPSNELEACGRVSYPEDNGACHRMDSPRSAEFSGGSGHFVSEKDGHKTTISPRSPAETSELVGQMTIFYSGKVNVYDGIPPEKARSIMHFAANPIDLPENGIFASSRMISKLISKEKMMELPQKGLEKANSSRDSGMEGQANRKVSLQRYREKRKDRKFSKAKKCPGVASSSLEMFLNCQPRMKAAYSQNLGCTGSPLHSQSPESQTKSPNLSVDLNSEGI
notes: Bait fusion expressed in yeast strain MaV203 (ProQuest two-hybrid system); also called PPD1 fused to DBD; PPD1 bait

Experiments:
[1] = biological target: T1, Y2H NINJA-AD (Arabidopsis NINJA, …); assay: yeast two-hybrid (legend of FIG. 6)
Protocol: (§1) The ProQuest two-hybrid system (Invitrogen) was used to analyse interactions between PPD1, NINJA, TPL, and BZR1. Combinations of bait and prey constructs were used to co-transform yeast strain MaV203 (Invitrogen), with selection on synthetic dropout (SD) SD/-Leu/-Trp agar plates. Transformed strains were tested for interactions using 10 μl droplets of 1 in 10 and 1 in 100 dilutions on SD/-Leu/-Trp/-His plates with different concentrations of 3-aminotriazol (3-AT) (Sigma).

[2] = biological target: T2, Y2H BZR1-AD (Arabidopsis BZR1, …); assay: yeast two-hybrid (legend of FIG. 7)
Protocol: as §1

[3] = biological target: T3, Y2H PPD1-AD (Arabidopsis PPD1 full …); assay: yeast two-hybrid (legend of FIG. 6)
Protocol: as §1

[4] = biological target: T2, Y2H BZR1-AD (Arabidopsis BZR1, …); assay: yeast two-hybrid (ProQuest, MaV203, SD/-Leu/-Trp/-His with 3-AT)
Protocol: as §1

[5] = biological target: T1, Y2H NINJA-AD (Arabidopsis NINJA, …); assay: yeast two-hybrid (legend of FIG. 7)
Protocol: as §1

[6] = biological target: T4, Y2H RGA1-AD (DELLA protein RGA1 with …); assay: yeast two-hybrid, PPD1-DBD as bait, selective medium with 15 mM 3AT
From the text: The ProQuest two-hybrid system (Invitrogen) was used to analyse interactions between PPD1, and RGA1. Full length coding sequences of PPD1, together with truncation or deletion derivatives of PPD1 (PPD1Δppd, PPD1Δtify, and PPD1Δjas*) (FIG. 5), were Gateway sub-cloned into pDEST32 (N-terminal GAL4DBD) or pDEST22 (N-terminal GAL4AD). When translated these generated the following peptide sequences: 55, 65, 66, 67, 68, 7169, which are PPD1-DBD, RGA1, RGA1-AD, PPD1-ppd-DBD, PPD1-tify-DBD, PP1-jas*-DBD respectively.
Combinations of bait and prey constructs were used to co-transform yeast strain MaV203 (Invitrogen), with selection on synthetic dropout (SD) SD/-Leu/-Trp agar plates. Transformed strains were tested for interactions using 10 μl droplets of 1 in 10 and 1 in 100 dilutions on SD/-Leu/-Trp/-His plates with different concentrations of 3-aminotriazol (3-AT) (Sigma). The PPD1-RGA1 interaction was tested with PPD1-DBD used as bait. Transformed yeast was spotted as a ten-fold dilution on control medium (−2) or selective medium (−3) with 15 mM 3AT. Controls were empty vectors, DBD, GAL4 DNA binding domain, AD, GAL4 activation domain (FIG. 5).

Binder	binding result [1]	binding result [2]	binding result [3]	binding result [4]	binding result [5]	binding result [6]
B1	binds	binds				
B2			binds	no binding	binds	binds
